Results: publication PMC5789076, “Molecular basis for the specific and multivariant recognitions of RNA substrates by human hnRNP A2/B1”

Experiments:
Test in all cases: ITC; ITC: 10 mM HEPES pH 8.0, 50 mM KCl, 1 mM EDTA, 1 mM BME, 25 C (protein into RNA); EMSA: 10 mM HEPES pH 8.0, 50 mM KCl, 1 mM EDTA, 5 mM BME, room temperature 30
[1] = molecular target: hnRNP A2/B1 RRM1-RRM2 (human, UniProt P22626 12-195); settings: protein: recombinant; tags: N-terminal His6-SUMO removed by Ulp1; single strand
[2] = molecular target: hnRNP A2/B1 RRMs + RGG box (human, UniProt P22626 1-249); settings: protein: recombinant; tags: N-terminal His6-SUMO removed by Ulp1; single strand
[3] = molecular target: hnRNP A2/B1 (12-195) E183A (human, UniProt P22626 12-195, E183A); settings: protein: recombinant; tags: His6-SUMO removed; single strand
[4] = molecular target: hnRNP A2/B1 (12-195) D49A (human, UniProt P22626 12-195, D49A); settings: protein: recombinant; tags: His6-SUMO removed; single strand
[5] = molecular target: hnRNP A2/B1 (12-195) K113A (human, UniProt P22626 12-195, K113A); settings: protein: recombinant; tags: His6-SUMO removed; single strand
[6] = molecular target: hnRNP A2/B1 (12-195) F66A (human, UniProt P22626 12-195, F66A); settings: protein: recombinant; tags: His6-SUMO removed; single strand
[7] = molecular target: hnRNP A2/B1 (12-195) F157A (human, UniProt P22626 12-195, F157A); settings: protein: recombinant; tags: His6-SUMO removed; single strand
[8] = molecular target: hnRNP A2/B1 (12-195) E92A (human, UniProt P22626 12-195, E92A); settings: protein: recombinant; tags: His6-SUMO removed; single strand
[9] = molecular target: hnRNP A2/B1 (12-195) K120A (human, UniProt P22626 12-195, K120A); settings: protein: recombinant; tags: His6-SUMO removed; single strand
[10] = molecular target: hnRNP A2/B1 full-length (human, UniProt P22626 1-353); settings: protein: recombinant; tags: prepared with His6(-SUMO) tag or untagged; single strand
[11] = molecular target: hnRNP A2/B1 (12-195) Q19A (human, UniProt P22626 12-195, Q19A); settings: protein: recombinant; tags: His6-SUMO removed; single strand
[12] = molecular target: hnRNP A2/B1 (12-195) F24A (human, UniProt P22626 12-195, F24A); settings: protein: recombinant; tags: His6-SUMO removed; single strand
[13] = molecular target: hnRNP A2/B1 (12-195) H108A (human, UniProt P22626 12-195, H108A); settings: protein: recombinant; tags: His6-SUMO removed; single strand
[14] = molecular target: hnRNP A2/B1 (12-195) F115A (human, UniProt P22626 12-195, F115A); settings: protein: recombinant; tags: His6-SUMO removed; single strand
hnRNP A2/B1 (12-195) F115A, sequence (P22626 12-195 F115A): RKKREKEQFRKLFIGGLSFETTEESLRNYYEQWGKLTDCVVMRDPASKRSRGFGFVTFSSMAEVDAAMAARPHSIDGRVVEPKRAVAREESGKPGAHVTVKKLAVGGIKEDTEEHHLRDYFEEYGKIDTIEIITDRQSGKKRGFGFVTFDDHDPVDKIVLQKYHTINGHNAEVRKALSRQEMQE

hnRNP A2/B1 RRM1-RRM2, sequence (P22626 12-195): as the sequence (P22626 12-195 F115A) above, with A104F counted along it
hnRNP A2/B1 RRMs + RGG box, sequence (P22626 1-249): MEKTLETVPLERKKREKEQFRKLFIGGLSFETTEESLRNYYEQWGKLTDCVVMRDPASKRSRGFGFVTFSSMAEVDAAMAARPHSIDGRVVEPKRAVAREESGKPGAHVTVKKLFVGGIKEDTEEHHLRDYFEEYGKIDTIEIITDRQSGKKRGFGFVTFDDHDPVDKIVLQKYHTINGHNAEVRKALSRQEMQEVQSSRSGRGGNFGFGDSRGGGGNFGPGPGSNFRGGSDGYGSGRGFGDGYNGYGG
hnRNP A2/B1 full-length, sequence (P22626 whole entry): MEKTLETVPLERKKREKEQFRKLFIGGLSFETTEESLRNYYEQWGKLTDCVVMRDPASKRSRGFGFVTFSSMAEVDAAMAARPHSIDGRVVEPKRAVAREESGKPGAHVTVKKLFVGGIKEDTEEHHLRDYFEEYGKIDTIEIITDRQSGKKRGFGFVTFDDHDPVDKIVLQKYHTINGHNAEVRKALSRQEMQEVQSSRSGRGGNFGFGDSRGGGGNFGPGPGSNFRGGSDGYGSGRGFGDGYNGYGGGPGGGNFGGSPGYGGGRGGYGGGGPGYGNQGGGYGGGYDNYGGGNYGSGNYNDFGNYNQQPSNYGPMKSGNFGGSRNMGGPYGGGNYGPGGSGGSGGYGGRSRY
hnRNP A2/B1 (12-195) E92A, sequence (P22626 12-195 E92A): as the sequence (P22626 12-195 F115A) above, with E81A, A104F counted along it
hnRNP A2/B1 (12-195) K120A, sequence (P22626 12-195 K120A): as the sequence (P22626 12-195 F115A) above, with A104F, K109A counted along it
hnRNP A2/B1 (12-195) D49A, sequence (P22626 12-195 D49A): as the sequence (P22626 12-195 F115A) above, with D38A, A104F counted along it
hnRNP A2/B1 (12-195) Q19A, sequence (P22626 12-195 Q19A): as the sequence (P22626 12-195 F115A) above, with Q8A, A104F counted along it
hnRNP A2/B1 (12-195) F24A, sequence (P22626 12-195 F24A): as the sequence (P22626 12-195 F115A) above, with F13A, A104F counted along it
hnRNP A2/B1 (12-195) E183A, sequence (P22626 12-195 E183A): as the sequence (P22626 12-195 F115A) above, with A104F, E172A counted along it
hnRNP A2/B1 (12-195) F66A, sequence (P22626 12-195 F66A): as the sequence (P22626 12-195 F115A) above, with F55A, A104F counted along it
hnRNP A2/B1 (12-195) K113A, sequence (P22626 12-195 K113A): as the sequence (P22626 12-195 F115A) above, with K102A, A104F counted along it
hnRNP A2/B1 (12-195) H108A, sequence (P22626 12-195 H108A): as the sequence (P22626 12-195 F115A) above, with H97A, A104F counted along it
hnRNP A2/B1 (12-195) F157A, sequence (P22626 12-195 F157A): as the sequence (P22626 12-195 F115A) above, with A104F, F146A counted along it

Binder | Kd [1] [nM] | further results
ACGGACUAGC (ssRNA) [A1C] | 662 ± 54.3 | 
AAGGACUACC (ssRNA) [G8C] | 292 ± 44.2 | 
AAGAACUAGC (ssRNA) [G3A] | 244 ± 25.3 | 
AGGACUGC (ssRNA, m6A at position 4) [8mer-m6A] | 461 ± 47.4 | Kd [2]: 505 ± 44.2 nM
AAGGACUGGC (ssRNA) [A7G] | 108 ± 11.5 | 
AAGGACUAGC (ssRNA) [10mer] | 115 ± 11.5 | Kd [3]: 290 ± 47.8 nM; Kd [4]: 562 ± 69.4 nM; Kd [2]: 26.5 ± 1.8 nM; Kd [5]: 813 ± 1.17 nM; Kd [6]: 763 ± 10.2 nM; Kd [7]: 535 ± 97.1 nM; Kd [8]: 752 ± 85.5 nM; Kd [9]: 413 ± 50.5 nM; Kd [10]: 103 ± 8.93 nM; Kd [11]: 440 ± 42 nM; Kd [12]: 457 ± 35.5 nM; Kd [13]: 167 ± 19.2 nM; Kd [14]: 781 ± 87.7 nM
AUGGACUAGC (ssRNA) [A1U] | 532 ± 66.7 | 
AGGACUGC (ssRNA) [8mer] | 276 ± 27.5 | Kd [2]: 465 ± 53.2 nM
AAGGACCAGC (ssRNA) [U6C] | 184 ± 16.3 | 
AAGGACUAUC (ssRNA) [G8U] | 272 ± 30.7 | 
AAGGACUAAC (ssRNA) [G8A] | 107 ± 16.2 | 
AAGCACUAGC (ssRNA) [G3C] | 952.4 ± 1.14 | 
AAUGACUAGC (ssRNA) [G2U] | 581 ± 58.1 | 
AAGGACUAGC (ssRNA, m6A at position 5) [10mer-m6A] | 1320 ± 143 | Kd [2]: 176 ± 25.3 nM; Kd [10]: 172 ± 25.6 nM
AAAGACUAGC (ssRNA) [G2A] | 316 ± 37 | 
AACGACUAGC (ssRNA) [G2C] | 699 ± 88.5 | 
AAGGACAAGC (ssRNA) [U6A] | 204 ± 19.9 | 
